# Assay results taken from patent publication US20210388087A1 (Chugai, published 2021).
# Target: T1, Human CD137 ECD (human)
# T1 construct: entry includes C-terminal His-tag and biotin acceptor peptide; also called human CD137 extracellular domain; 4-1BB
# Assay: Biacore SPR, vs parent H183/L072
# T1 sequence (chain, as listed by the source limits assumed): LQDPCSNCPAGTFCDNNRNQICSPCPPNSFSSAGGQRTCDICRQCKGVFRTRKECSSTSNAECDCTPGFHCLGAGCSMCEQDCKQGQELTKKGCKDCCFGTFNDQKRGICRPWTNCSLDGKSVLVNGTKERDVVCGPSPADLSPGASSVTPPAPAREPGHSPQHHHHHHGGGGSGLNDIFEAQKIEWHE
row,Binder,fold change of affinity
1,"H183/L072 VL V27cH (antibody, name in Kabat numbering, V domains shown, Dual-Ig) VH: QVQLVESGGGLVQPGRSLRLSCAASGFTFSNAWMHWVRQAPGKGLEWVAQIKDKGNAYAAYYAPSVKGRFTISRDDSKNSIYLQMNSLKTEDTAVYYCHYVHYASASTVLPAFGVDAWGQGTTVTVSS VL: DIVMTQSPLSLPVTPGEPASISCQASQELHHMNRNTYLHWYQQKPGQAPRLLIYKVSNRFPGVPDRFSGSGSGTDFTLKISRVEAEDVGVYYCAQGTSVPFTFGQGTKLEIK",0.6 fold
2,"H183/L072 VL V51A (antibody, name in Kabat numbering, V domains shown, Dual-Ig) VH: QVQLVESGGGLVQPGRSLRLSCAASGFTFSNAWMHWVRQAPGKGLEWVAQIKDKGNAYAAYYAPSVKGRFTISRDDSKNSIYLQMNSLKTEDTAVYYCHYVHYASASTVLPAFGVDAWGQGTTVTVSS VL: DIVMTQSPLSLPVTPGEPASISCQASQELVHMNRNTYLHWYQQKPGQAPRLLIYKASNRFPGVPDRFSGSGSGTDFTLKISRVEAEDVGVYYCAQGTSVPFTFGQGTKLEIK",0.8 fold
3,"H183/L072 VL V51K (antibody, name in Kabat numbering, V domains shown, Dual-Ig) VH: QVQLVESGGGLVQPGRSLRLSCAASGFTFSNAWMHWVRQAPGKGLEWVAQIKDKGNAYAAYYAPSVKGRFTISRDDSKNSIYLQMNSLKTEDTAVYYCHYVHYASASTVLPAFGVDAWGQGTTVTVSS VL: DIVMTQSPLSLPVTPGEPASISCQASQELVHMNRNTYLHWYQQKPGQAPRLLIYKKSNRFPGVPDRFSGSGSGTDFTLKISRVEAEDVGVYYCAQGTSVPFTFGQGTKLEIK",1.4 fold
4,"H183/L072 VL V51I (antibody, name in Kabat numbering, V domains shown, Dual-Ig) VH: QVQLVESGGGLVQPGRSLRLSCAASGFTFSNAWMHWVRQAPGKGLEWVAQIKDKGNAYAAYYAPSVKGRFTISRDDSKNSIYLQMNSLKTEDTAVYYCHYVHYASASTVLPAFGVDAWGQGTTVTVSS VL: DIVMTQSPLSLPVTPGEPASISCQASQELVHMNRNTYLHWYQQKPGQAPRLLIYKISNRFPGVPDRFSGSGSGTDFTLKISRVEAEDVGVYYCAQGTSVPFTFGQGTKLEIK",0.6 fold
5,"H183/L072 VL V27cM (antibody, name in Kabat numbering, V domains shown, Dual-Ig) VH: QVQLVESGGGLVQPGRSLRLSCAASGFTFSNAWMHWVRQAPGKGLEWVAQIKDKGNAYAAYYAPSVKGRFTISRDDSKNSIYLQMNSLKTEDTAVYYCHYVHYASASTVLPAFGVDAWGQGTTVTVSS VL: DIVMTQSPLSLPVTPGEPASISCQASQELMHMNRNTYLHWYQQKPGQAPRLLIYKVSNRFPGVPDRFSGSGSGTDFTLKISRVEAEDVGVYYCAQGTSVPFTFGQGTKLEIK",0.9 fold
6,"H183/L072 VL V27cP (antibody, name in Kabat numbering, V domains shown, Dual-Ig) VH: QVQLVESGGGLVQPGRSLRLSCAASGFTFSNAWMHWVRQAPGKGLEWVAQIKDKGNAYAAYYAPSVKGRFTISRDDSKNSIYLQMNSLKTEDTAVYYCHYVHYASASTVLPAFGVDAWGQGTTVTVSS VL: DIVMTQSPLSLPVTPGEPASISCQASQELPHMNRNTYLHWYQQKPGQAPRLLIYKVSNRFPGVPDRFSGSGSGTDFTLKISRVEAEDVGVYYCAQGTSVPFTFGQGTKLEIK",0.5 fold
7,"H183/L072 VL V27cL (antibody, name in Kabat numbering, V domains shown, Dual-Ig) VH: QVQLVESGGGLVQPGRSLRLSCAASGFTFSNAWMHWVRQAPGKGLEWVAQIKDKGNAYAAYYAPSVKGRFTISRDDSKNSIYLQMNSLKTEDTAVYYCHYVHYASASTVLPAFGVDAWGQGTTVTVSS VL: DIVMTQSPLSLPVTPGEPASISCQASQELLHMNRNTYLHWYQQKPGQAPRLLIYKVSNRFPGVPDRFSGSGSGTDFTLKISRVEAEDVGVYYCAQGTSVPFTFGQGTKLEIK",0.8 fold
8,"H183/L072 VL V27cW (antibody, name in Kabat numbering, V domains shown, Dual-Ig) VH: QVQLVESGGGLVQPGRSLRLSCAASGFTFSNAWMHWVRQAPGKGLEWVAQIKDKGNAYAAYYAPSVKGRFTISRDDSKNSIYLQMNSLKTEDTAVYYCHYVHYASASTVLPAFGVDAWGQGTTVTVSS VL: DIVMTQSPLSLPVTPGEPASISCQASQELWHMNRNTYLHWYQQKPGQAPRLLIYKVSNRFPGVPDRFSGSGSGTDFTLKISRVEAEDVGVYYCAQGTSVPFTFGQGTKLEIK",0.7 fold
9,"H183/L072 VL V27cY (antibody, name in Kabat numbering, V domains shown, Dual-Ig) VH: QVQLVESGGGLVQPGRSLRLSCAASGFTFSNAWMHWVRQAPGKGLEWVAQIKDKGNAYAAYYAPSVKGRFTISRDDSKNSIYLQMNSLKTEDTAVYYCHYVHYASASTVLPAFGVDAWGQGTTVTVSS VL: DIVMTQSPLSLPVTPGEPASISCQASQELYHMNRNTYLHWYQQKPGQAPRLLIYKVSNRFPGVPDRFSGSGSGTDFTLKISRVEAEDVGVYYCAQGTSVPFTFGQGTKLEIK",0.7 fold
10,"H183/L072 VL V27cQ (antibody, name in Kabat numbering, V domains shown, Dual-Ig) VH: QVQLVESGGGLVQPGRSLRLSCAASGFTFSNAWMHWVRQAPGKGLEWVAQIKDKGNAYAAYYAPSVKGRFTISRDDSKNSIYLQMNSLKTEDTAVYYCHYVHYASASTVLPAFGVDAWGQGTTVTVSS VL: DIVMTQSPLSLPVTPGEPASISCQASQELQHMNRNTYLHWYQQKPGQAPRLLIYKVSNRFPGVPDRFSGSGSGTDFTLKISRVEAEDVGVYYCAQGTSVPFTFGQGTKLEIK",0.8 fold
11,"H183/L072 VL V27cN (antibody, name in Kabat numbering, V domains shown, Dual-Ig) VH: QVQLVESGGGLVQPGRSLRLSCAASGFTFSNAWMHWVRQAPGKGLEWVAQIKDKGNAYAAYYAPSVKGRFTISRDDSKNSIYLQMNSLKTEDTAVYYCHYVHYASASTVLPAFGVDAWGQGTTVTVSS VL: DIVMTQSPLSLPVTPGEPASISCQASQELNHMNRNTYLHWYQQKPGQAPRLLIYKVSNRFPGVPDRFSGSGSGTDFTLKISRVEAEDVGVYYCAQGTSVPFTFGQGTKLEIK",0.5 fold
12,"H183/L072 VL V27cK (antibody, name in Kabat numbering, V domains shown, Dual-Ig) VH: QVQLVESGGGLVQPGRSLRLSCAASGFTFSNAWMHWVRQAPGKGLEWVAQIKDKGNAYAAYYAPSVKGRFTISRDDSKNSIYLQMNSLKTEDTAVYYCHYVHYASASTVLPAFGVDAWGQGTTVTVSS VL: DIVMTQSPLSLPVTPGEPASISCQASQELKHMNRNTYLHWYQQKPGQAPRLLIYKVSNRFPGVPDRFSGSGSGTDFTLKISRVEAEDVGVYYCAQGTSVPFTFGQGTKLEIK",0.9 fold
13,"H183/L072 VL V51D (antibody, name in Kabat numbering, V domains shown, Dual-Ig) VH: QVQLVESGGGLVQPGRSLRLSCAASGFTFSNAWMHWVRQAPGKGLEWVAQIKDKGNAYAAYYAPSVKGRFTISRDDSKNSIYLQMNSLKTEDTAVYYCHYVHYASASTVLPAFGVDAWGQGTTVTVSS VL: DIVMTQSPLSLPVTPGEPASISCQASQELVHMNRNTYLHWYQQKPGQAPRLLIYKDSNRFPGVPDRFSGSGSGTDFTLKISRVEAEDVGVYYCAQGTSVPFTFGQGTKLEIK",0 fold
14,"H183/L072 VL V51G (antibody, name in Kabat numbering, V domains shown, Dual-Ig) VH: QVQLVESGGGLVQPGRSLRLSCAASGFTFSNAWMHWVRQAPGKGLEWVAQIKDKGNAYAAYYAPSVKGRFTISRDDSKNSIYLQMNSLKTEDTAVYYCHYVHYASASTVLPAFGVDAWGQGTTVTVSS VL: DIVMTQSPLSLPVTPGEPASISCQASQELVHMNRNTYLHWYQQKPGQAPRLLIYKGSNRFPGVPDRFSGSGSGTDFTLKISRVEAEDVGVYYCAQGTSVPFTFGQGTKLEIK",0.4 fold
15,"H183/L072 VL V27cT (antibody, name in Kabat numbering, V domains shown, Dual-Ig) VH: QVQLVESGGGLVQPGRSLRLSCAASGFTFSNAWMHWVRQAPGKGLEWVAQIKDKGNAYAAYYAPSVKGRFTISRDDSKNSIYLQMNSLKTEDTAVYYCHYVHYASASTVLPAFGVDAWGQGTTVTVSS VL: DIVMTQSPLSLPVTPGEPASISCQASQELTHMNRNTYLHWYQQKPGQAPRLLIYKVSNRFPGVPDRFSGSGSGTDFTLKISRVEAEDVGVYYCAQGTSVPFTFGQGTKLEIK",0.7 fold
16,"H183/L072 VL V27cI (antibody, name in Kabat numbering, V domains shown, Dual-Ig) VH: QVQLVESGGGLVQPGRSLRLSCAASGFTFSNAWMHWVRQAPGKGLEWVAQIKDKGNAYAAYYAPSVKGRFTISRDDSKNSIYLQMNSLKTEDTAVYYCHYVHYASASTVLPAFGVDAWGQGTTVTVSS VL: DIVMTQSPLSLPVTPGEPASISCQASQELIHMNRNTYLHWYQQKPGQAPRLLIYKVSNRFPGVPDRFSGSGSGTDFTLKISRVEAEDVGVYYCAQGTSVPFTFGQGTKLEIK",1 fold
17,"H183/L072 VL V51H (antibody, name in Kabat numbering, V domains shown, Dual-Ig) VH: QVQLVESGGGLVQPGRSLRLSCAASGFTFSNAWMHWVRQAPGKGLEWVAQIKDKGNAYAAYYAPSVKGRFTISRDDSKNSIYLQMNSLKTEDTAVYYCHYVHYASASTVLPAFGVDAWGQGTTVTVSS VL: DIVMTQSPLSLPVTPGEPASISCQASQELVHMNRNTYLHWYQQKPGQAPRLLIYKHSNRFPGVPDRFSGSGSGTDFTLKISRVEAEDVGVYYCAQGTSVPFTFGQGTKLEIK",0.6 fold
18,"H183/L072 VL V51E (antibody, name in Kabat numbering, V domains shown, Dual-Ig) VH: QVQLVESGGGLVQPGRSLRLSCAASGFTFSNAWMHWVRQAPGKGLEWVAQIKDKGNAYAAYYAPSVKGRFTISRDDSKNSIYLQMNSLKTEDTAVYYCHYVHYASASTVLPAFGVDAWGQGTTVTVSS VL: DIVMTQSPLSLPVTPGEPASISCQASQELVHMNRNTYLHWYQQKPGQAPRLLIYKESNRFPGVPDRFSGSGSGTDFTLKISRVEAEDVGVYYCAQGTSVPFTFGQGTKLEIK",0.6 fold
19,"H183/L072 VL V27cR (antibody, name in Kabat numbering, V domains shown, Dual-Ig) VH: QVQLVESGGGLVQPGRSLRLSCAASGFTFSNAWMHWVRQAPGKGLEWVAQIKDKGNAYAAYYAPSVKGRFTISRDDSKNSIYLQMNSLKTEDTAVYYCHYVHYASASTVLPAFGVDAWGQGTTVTVSS VL: DIVMTQSPLSLPVTPGEPASISCQASQELRHMNRNTYLHWYQQKPGQAPRLLIYKVSNRFPGVPDRFSGSGSGTDFTLKISRVEAEDVGVYYCAQGTSVPFTFGQGTKLEIK",0.9 fold
20,"H183/L072 VL V27cS (antibody, name in Kabat numbering, V domains shown, Dual-Ig) VH: QVQLVESGGGLVQPGRSLRLSCAASGFTFSNAWMHWVRQAPGKGLEWVAQIKDKGNAYAAYYAPSVKGRFTISRDDSKNSIYLQMNSLKTEDTAVYYCHYVHYASASTVLPAFGVDAWGQGTTVTVSS VL: DIVMTQSPLSLPVTPGEPASISCQASQELSHMNRNTYLHWYQQKPGQAPRLLIYKVSNRFPGVPDRFSGSGSGTDFTLKISRVEAEDVGVYYCAQGTSVPFTFGQGTKLEIK",0.3 fold
21,"H183/L072 VL V51F (antibody, name in Kabat numbering, V domains shown, Dual-Ig) VH: QVQLVESGGGLVQPGRSLRLSCAASGFTFSNAWMHWVRQAPGKGLEWVAQIKDKGNAYAAYYAPSVKGRFTISRDDSKNSIYLQMNSLKTEDTAVYYCHYVHYASASTVLPAFGVDAWGQGTTVTVSS VL: DIVMTQSPLSLPVTPGEPASISCQASQELVHMNRNTYLHWYQQKPGQAPRLLIYKFSNRFPGVPDRFSGSGSGTDFTLKISRVEAEDVGVYYCAQGTSVPFTFGQGTKLEIK",0.2 fold
